In the DeepSol protein solubility set:

Assay: soluble on expression in E. coli; label from the status in PepcDB or PDB records

Sequence	soluble on expression in E. coli
MSTPIPPSSPPSTPTTRANNRTKSFSGTGTVATTACICGNVPIALSANTLADSLKVSPLYKQQDSARWNAAAQVYRTSRAVSPTLEEKEKFGFDNAYINQMISPKMSIPKTPISLEEIADMNRKRHEVEGGVIPSDDDVGPLELEAIAAVHELAHEVQDISVSEMLPRTSDLIFVNVKTQEGSPYTLELTMKGWRIASSHTDCMNGDYTKISLHTKYYRNARELLKFISPDHATRFNECVAQKLSKLAEVAVQ	not soluble
MSTPRQILAAIFDMDGLLIDSEPLWDRAELDVMASLGVDISRRNELPDTLGLRIDMVVDLWYARQPWNGPSRQEVVERVIARAISLVEETRPLLPGVREAVALCKEQGLLVGLASASPLHMLEKVLTMFDLRDSFDALASAEKLPYSKPHPQVYLDCAAKLGVDPLTCVALEDSVNGMIASKAARMRSIVVPAPEAQNDPRFVLSNVKLSSLTELTAKDLLG	soluble
MSTSLTIRLVAEADWPALHALDQIIWTKKNTPAEIQPLSLAAYQEKMKDETIFVAISGQQLAGFIEVHPPTSLAAHQKQWLLSIGVSPDFQDQGIGGSLLSYIKDMAEISGIHKLSLRVMATNQEAIRFYEKHGFVQEAHFKEEFYINGHYCDDYQYAYFIEK	soluble
MSTTFAARLNRLFDTVYPPGRGPHTSAEVIAALKAEGITMSAPYLSQLRSGNRTNPSGATMAALANFFRIKAAYFTDDEYYEKLDKELQWLCTMRDDGVRRIAQRAHGLPSAAQQKVLDRIDELRRAEGIDA	soluble
MSTVTITDLARENVRNLTPYQSARRLGGNGDVWLNANEYPTAVEFQLTQQTLNRYPECQPKAVIENYAQYAGVKPEQVLVSRGADEGIELLIRAFCEPGKDAILYCPPTYGMYSVSAETIGVECRTVPTLDNWQLDLQGISDKLDGVKVVYVCSPNNPTGQLINPQDFRTLLELTRGKAIVVADEAYIEFCPQASLAGWLAEYPHLAILRTLSKAFALAGLRCGFTLANEEVINLLMKVIAPYPLSTPVADIAAQALSPQGIVAMRERVAQIIAEREYLIAALKEIPCVEQVFDSETNYILARFKASSAVFKSLWDQGIILRDQNKQPSLSGCLRITVGTREESQRVIDALRAEQV	soluble
MSTVVDRLQRMTLNLTSPDGNLCATVDAERRARFHLRDETRFERYDAPTLSTQVKALLTTMNSGRELGIKRAYAADGREPAAVNGTHWDAAHRRFEAALATLELEGYSEDGLLLLQSGFDLSGYRVTIDRDDLPRTSPEQFLRELSGAYRDLLAHRRQRRAELLREHLGT	not soluble
MSVDSEETSSNGVVPPNSLPPKPEARFGRHVRSFSVDSDFFDDLGVTEEKFIATSSGEKKKGNHHHSRSNSMDGEMSSASFNIESILASVSGKDSGKKNMGMGGDRLAELALLDPKRAKRILANRQSAARSKERKIRYTGELERKVQTLQNEATTLSAQVTMLQRGTSELNTENKHLKMRLQALEQQAELRDALNEALRDELNRLKVVAGEIPQGNGNSYNRAQFSSQQSAMNQFGNKTNQQMSTNGQPSLPSYMDFTKRG	soluble
MSVEEEKGLLARADEFLQAFKKGAEFTQELLRENERLRFRTLQLEADQKGEGVAAALAVENRKLAARVEELEREIAEIIGQIRQIEAENNDFAARYVEIEEENNNLANLYIASYQLHSTLDFSEVLQIITEIIINLIGAEEFAVMLVDEKTGSLDAVAAEGISLEELPRVRLGEGVIGIAAGTGENYFAEGPETYERDLLRPMVCIPLKIKEHVIGVIAIYKLLIQKKSFASVDYELFTLLAGHAATAIFSSRIYSDSERKLSTMQGFINLLTT	not soluble
MSVFHDEVEIEDFEFDEEKDVYHYPCPCGDRFEIPREMLEMGEDVAQCPSCSLLIRVIYDPEDFVKLETISTSKPIAEPV	not soluble
MSVSFMELGSADSAEAAANKVAHHVEQMMETSDFFDRLTQHGTTPVSGLGEKFYVKGAPEFVSTRRIPIPGELQMQMSNIHSEFSMGFFTQISRVWVVIDNNLYMWNYETNDDLAFFDSSDAAILKVSLVNIKPGVFEPEIQYGLVVGTISDICLYPVFDFVENGASSISIDSKRCFKIALDGATVNDISYTSNGRVFYTADDQLFEFVYEKQNGWFGSTNHKCRGVNQTASILGTLISLPFFGSSKEPLDQITIDKSRNIMYLLGRAGTVSVWDLGADGAACAKFLSVPISKIAHEAHILTQFGHDETSFHSITSIKALEASQSAALNLVATTAKGVRLYFSVSTGPQSTMAMFNNSGTPNERNRPQTSVRPQCLRVAHVRFAPGVTPASIYGDGPNGVSVVYADECTRL	not soluble
MSVTYDDSVGVEVSSDSFWEVGNYKRTVKRIDDGHRLCSDLMNCLHERARIEKAYAQQLTEWARRWRQLVEKGPQYGTVEKAWMAFMSEAERVSELHLEVKASLMNDDFEKIKNWQKEAFHKQMMGGFKETKEAEDGFRKAQKPWAKKLKEVEAAKKAHHAACKEEKLAISREANSKADPSLNPEQLKKLQDKIEKCKQDVLKTKEKYEKSLKELDQGTPQYMENMEQVFEQCQQFEEKRLRFFREVLLEVQKHLDLSNVAGYKAIYHDLEQSIRAADAVEDLRWFRANHGPGMAMNWPQFEEWSADLNRTLSRREKKKATDGVTLTGINQTGDQSLPSKPSSTLNVPSNPAQSAQSQSSYNPFEDEDDTGSTVSEKDDTKAKNVSSYEKTQSYPTDWSDDESNNPFSSTDANGDSNPFDDDATSGTEVRVRALYDYEGQEHDELSFKAGDELTKMEDEDEQGWCKGRLDNGQVGLYPANYVEAIQ	soluble
MSVVALVLAAGSSVRFGADKRRSLMADGRSLLVHSVESACAVFDDVRVVLREGERGVDLGLPARCRVVSSPNFTLGMGHSLAAGAASLADSEAQAVAILLGDMPWVASATLDLLAREASGSTIVLPCHAGRQGHPVLFGRDFWPALARLKGDEGARSVVKANPAVCVRLEVQDAGVLQDVDRPDAVRPLEHHHHHH	soluble
MSWNCLLPIFVGFFVLFYEGQCQPARWTQQPGGQNPQPGASFPPNMNPVTNGPGSWTQKPGGYNNGPGSGSFKSTKPPRGLVYYQPKNYPYKPGKGGKYMHADPILPNANERLSAQSDQYTVSDGITGDWSKIVANSKGFYVLHPVQTKSEEDIFDPYTIGQVIGYLYEVQEFGGKKPPSGKYTIELMGKKIPDHLKKKRSLFGSPDRTRRATLVFKKKEQVKSTL	not soluble
MSYGLIIVLMIILGIGLWHTKKYHRAVVNQVAHVWITKNAFEHTALGMAIVSPDCRFLKVNRAYGEITGYTRPELLKMAVKELTHPEDQEKDTPYLQEVFAGNIHSFTTVKRYIHKNGSTIWVRSTISAVRTERGNLEHHHHHH	soluble
MSYKEGDVLVTNGEQSPGYKIVEIKGLVVGITVRSRGLGKNIIASLRSLLGGEIKEYVELAEQARLQALQRMVDNAKALGANAVVNVRFDSNELSEAMDEIIAYGTAVVVEKSS	soluble
MSYRKKLTSPEDAVGLIRSGMRVFVSGNAATPTPLLKALAARKDELENVELVHLLQMGEDPFASLEMEGHFRRRSLFVGPADREAVNQGRADYVPVMLHQVPWLFKRGILPLDAAIVQVSPPDEHGFCSLGVEVIATKAAVEAAPIVIAMVNPRMPRTLGDTFVHVSRFTAIVEVDWPLPELKREGFGEVERRIGEHVAGLIEDGATLQMGIGAIPDAVLASLEGRRDLGVHTEMISDGVLEAWEKGLITGAKKSLHPGKIVGTFVLGSERLYRFVHDNPLFELHPADYVNDPFVIAQNRKMVAINSAIEVDLTGQVVADSIGTRIYSGFGGQLDFIRGAARSEGGKPIIALPSTAKGQSRIVPFLKPGAGVVTTRADVHYVVTEWGVAELFGRSLRERAKALIAIAHPDFREALLQGAWERGLLPRGYPGVDLKGLEEKRGRP	soluble
